Holding throughout (assay): ELISA; APP fragment (12.2 nM, 50 µL/well) plated at 4°C overnight; p75^NTR ECD-Fc or IgG-Fc added at the indicated concentrations for 2 h at room temperature; detected by anti-human IgG-Fc; EC50 from sigmoid dose-response curve
Background: In an ELISA, binding on a coated surface is turned into a signal by an enzyme label.

Assay [1] addresses Soluble β-amyloid Precursor Protein Alpha (sAPPα), recombinant, His-tagged (UniProt P05067).
In assay [2] the target is sAPPβ, recombinant, His-tagged.
Assay [3] has as its target C-sAPPα (sAPPα 304–612), recombinant, His-tagged (UniProt P05067).

In general, EC50 refers to the concentration needed to bring the measured effect to its halfway point. As to “recombinant p75^NTR extracellular domain fused to human Fc (p75^NTR ECD-Fc) chimera protein (from UniProt P08138 29-250) (Fc fusion)”, the EC50 turned out to be 90 nM in assay [1], 120 nM in assay [2] and 150 nM in assay [3].

(Values after article PMC3864954.)
